Measured values taken from the supplement of paper PMC10126150.
± gives the standard deviation of the averaged measurements.

System: ATP
Experiment: switch fluorescence ratio, 500 uM ATP over buffer (Cy3 cluster intensity, sum of 5 cycles each) (fold (ratio)); higher = stronger signal-on switching upon ATP binding; sequences stand for … in TCGTCGGCAGCGTCAGATGTGTATAAGAGACAGTTTTTTTTTTTTTTTTTTTTTTTTT…TC
Details: aptamer strand: ATP DNA aptamer (quencher-CACCTGGGGGAGTATTGCGGAGGAAGG + anchor), 100 nM annealed; ATP concentration: 500 uM
How it was run: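 Clusters with intensities outside 100-1000 RFU were excluded. The remaining Cy3-labelled switching-strand clusters on a modified Illumina MiSeq flow-cell had been annealed to 100 nM quencher-labelled ATP aptamer and imaged in selection buffer, then after 15 min with 500 uM ATP at 22 °C, for five cycles separated by NaOH stripping and re-annealing. The fluorescence ratio, averaged per switch-domain sequence, is each cluster's summed target-cycle Cy3 intensity over its summed buffer-cycle Cy3 intensity.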
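Also: ATP exposure 15 min at 22 °C before imaging.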

CTTTGTTATG and TATTTGGACT are within error of each other in switch fluorescence ratio: 0.9909 ± 0.0047 for the first, 1.04 ± 0.046 for the second.

GTAAGGAGGT and TCGGGGGCGA are within error of each other in switch fluorescence ratio: 0.976 ± 0.023 for the first, 1.13 ± 0.17 for the second.

ATAGGGTGCG and GAACTTCTGG are within error of each other in switch fluorescence ratio: 1 ± 0.03 for the first, 0.985 ± 0.038 for the second.

Compared with ACGTATTAAT, AATGGGCAGT is lower in switch fluorescence ratio: 1.12 ± 0.031 for the first, 0.989 ± 0.029 for the second.

First: GGTAGGCTGC
Second: CATTACCGAG
The switch fluorescence ratio of the first is lower: 0.986 ± 0.018 for the first, 1.049 ± 0.0037 for the second.

AGGGTCGGCT and TCTTTCTTTC are within error of each other in switch fluorescence ratio: 0.993 ± 0.02 for the first, 1.01 ± 0.03 for the second.

CATGAATATT and GATTTATTTT are within error of each other in switch fluorescence ratio: 0.99 ± 0.037 for the first, 0.994 ± 0.017 for the second.

Going from GCATTAGCTT to GGTCGGGCTG, the switch fluorescence ratio falls from 1.007 ± 0.01 to 0.9942 ± 0.0047.

TCGGGTGGGA and CCTGTTGGGG are within error of each other in switch fluorescence ratio: 1.05 ± 0.058 for the first, 0.991 ± 0.039 for the second.

TATTATAGGA and CTATTTTACT are within error of each other in switch fluorescence ratio: 0.982 ± 0.017 for the first, 0.9873 ± 0.0073 for the second.

TTACTACTTT and ATTTTATTGT are within error of each other in switch fluorescence ratio: 1.04 ± 0.0099 for the first, 1 ± 0.05 for the second.

First: ACCTGTAATA
Second: TAGCTTCAC
The switch fluorescence ratio of the first is lower: 1.05 ± 0.0062 for the first, 1.142 ± 0.0084 for the second.

TTAATAAATT and ACACGTGGTT are within error of each other in switch fluorescence ratio: 1.03 ± 0.018 for the first, 1.04 ± 0.076 for the second.

CGGCGGGAAG and AGGACGGGCA are within error of each other in switch fluorescence ratio: 1 ± 0.023 for the first, 1.05 ± 0.053 for the second.

GGGGGGGATC and TTTTCGGATT are within error of each other in switch fluorescence ratio: 1.02 ± 0.045 for the first, 0.9845 ± 0.0054 for the second.

First: ACACGGGGAA
Second: TTTTGTTGCA
The switch fluorescence ratio of the first is lower: 1.0184 ± 0.00046 for the first, 1.038 ± 0.0056 for the second.

TATGGAAGTA and GGTGACGATT are within error of each other in switch fluorescence ratio: 1.01 ± 0.033 for the first, 0.9712 ± 0.0065 for the second.

TGGCTTTGGA and GGGACAAGAT are within error of each other in switch fluorescence ratio: 0.988 ± 0.022 for the first, 0.999 ± 0.026 for the second.

CGGGAAGCTT and TTAAGAACAC are within error of each other in switch fluorescence ratio: 1 ± 0.082 for the first, 1.04 ± 0.037 for the second.

First: CACCTTACTC
Second: AGTATAGGGG
The switch fluorescence ratio of the first is higher: 2.07 ± 0.11 for the first, 1.006 ± 0.007 for the second.

First: TGGATTTGTC
Second: AATACGGGAC
The switch fluorescence ratio of the first is lower: 0.99 ± 0.024 for the first, 1.303 ± 0.0093 for the second.

TTTTTATTTG and GGTGTAATAG are within error of each other in switch fluorescence ratio: 0.995 ± 0.05 for the first, 1.04 ± 0.036 for the second.

TCAATCGGGT and CTGTGTGATG are within error of each other in switch fluorescence ratio: 0.995 ± 0.053 for the first, 0.991 ± 0.017 for the second.

GGTTGACATA and CTTTGGTGTC are the same in switch fluorescence ratio: 1.01 ± 0.025 for the first, 1.01 ± 0.029 for the second.

GGCGGCGCTG and CATAATTAGT are within error of each other in switch fluorescence ratio: 1.03 ± 0.028 for the first, 0.994 ± 0.018 for the second.

First: CCGGCGGGG
Second: TGGGAGTTGT
The switch fluorescence ratio of the first is higher: 1.04 ± 0.027 for the first, 0.989 ± 0.011 for the second.

GGTTATGAAT and GAGGATTGAC are the same in switch fluorescence ratio: 1 ± 0.015 for the first, 1 ± 0.038 for the second.

CGGGTCGCGG and CAATAGAGAG are within error of each other in switch fluorescence ratio: 0.992 ± 0.031 for the first, 0.997 ± 0.024 for the second.

ATTGGGTATG and TTGGATGTCT are within error of each other in switch fluorescence ratio: 0.998 ± 0.044 for the first, 1.008 ± 0.0072 for the second.

AAGTAGATCC and TTTATTAGTA are within error of each other in switch fluorescence ratio: 1.04 ± 0.044 for the first, 0.983 ± 0.024 for the second.

Compared with GAATTCGGCT, CGTTTGTTGG is lower in switch fluorescence ratio: 1.0193 ± 6.4e-05 for the first, 0.984 ± 0.028 for the second.

GGGTGCCGGT and TGTGTTTACT are within error of each other in switch fluorescence ratio: 1.01 ± 0.024 for the first, 0.991 ± 0.022 for the second.

CGTGATAAGT and CTATTCTAGG are the same in switch fluorescence ratio: 1.02 ± 0.021 for the first, 1.019 ± 0.0083 for the second.

Going from TGATGCATAT to GTTGCTAGGT, the switch fluorescence ratio falls from 1.1411 ± 0.0011 to 0.9984 ± 0.0044.

First: CAGAACCCGC
Second: CGCGGATTGG
The switch fluorescence ratio of the first is higher: 1.1 ± 0.015 for the first, 0.9903 ± 0.0094 for the second.

TGTGTGTGGA and GATATCAGGA are within error of each other in switch fluorescence ratio: 1.04 ± 0.03 for the first, 0.989 ± 0.027 for the second.

CCTGATAGCG and TGAGGGGGGA are within error of each other in switch fluorescence ratio: 1.05 ± 0.03 for the first, 1 ± 0.036 for the second.

TCGCGGTTCT and TTTCAGGGAG are within error of each other in switch fluorescence ratio: 1.11 ± 0.085 for the first, 1.04 ± 0.056 for the second.

TTCTTTAAAC and ATTGAATGGC are within error of each other in switch fluorescence ratio: 0.992 ± 0.033 for the first, 1.04 ± 0.068 for the second.

GAGGTTTAAT and GGTTTCATAG are within error of each other in switch fluorescence ratio: 0.981 ± 0.039 for the first, 0.976 ± 0.013 for the second.

CCGGGGTAAG and CGTTTAGGTA are within error of each other in switch fluorescence ratio: 1.03 ± 0.029 for the first, 0.982 ± 0.048 for the second.

Going from AGGAAATAGG to TCCAGAGGGA, the switch fluorescence ratio rises from 0.963 ± 0.049 to 1.28 ± 0.23.

GGTAAATTTT and TGGGGTAGCG are within error of each other in switch fluorescence ratio: 1 ± 0.018 for the first, 0.998 ± 0.043 for the second.

TGCGAATAGG and GTGCTATCTA are within error of each other in switch fluorescence ratio: 1.0088 ± 0.00022 for the first, 1 ± 0.023 for the second.

First: AGCGATAGTT
Second: GAGGGGAGGT
The switch fluorescence ratio of the first is higher: 1.1 ± 0.038 for the first, 0.974 ± 0.025 for the second.

TCAGACAGAT and GAGTGACTTG are the same in switch fluorescence ratio: 1.02 ± 0.035 for the first, 1.017 ± 0.0089 for the second.

First: GCGGGCAAGT
Second: GAATAAGTCC
The switch fluorescence ratio of the first is lower: 0.9903 ± 0.00062 for the first, 1.04 ± 0.028 for the second.

First: AGGTTGCAGC
Second: TCTGAGCAAG
The switch fluorescence ratio of the first is lower: 0.992 ± 0.032 for the first, 2.47 ± 0.25 for the second.

First: TTGCCGCAGC
Second: GACTTGACTG
The switch fluorescence ratio of the first is higher: 1.49 ± 0.054 for the first, 1.11 ± 0.03 for the second.

AGGGCCGGTA and TAAGCTCTGT are within error of each other in switch fluorescence ratio: 1.03 ± 0.026 for the first, 0.984 ± 0.021 for the second.
